Source: publication PMC8682772, “Negative feedback for DARS2–Fis complex by ATP–DnaA supports the cell cycle-coordinated regulation for chromosome replication” (Nucleic Acids Research, 2021)
Positions count from the first letter of the chain named. Values joined by “and” are separate entries in the source; they are usually repeats but may differ in a detail not shown here. Identical values can stand only once.

Experiments:
[1] = molecular target: the molecule itself; assay: native gel or EMSA; DnaA preincubated with 3 uM ATP, then 30°C for 5 min in buffer G (20 mM HEPES–KOH pH 7.6, 80 mM KCl, 1 mM EDTA, 4 mM DTT, 5 mM magnesium acetate, 0.1 mg/ml BSA, 10% glycerol) with 35 nM 52-bp DARS2 FBS2–5 DNA and competitor λ-DNA; 7% polyacrylamide gel; oligomers counted as DnaA molecules on the DNA fragment (C1–C4)
Fis = Fis (Escherichia coli, UniProt P0A6R3 1-98); assay: EMSA; C1 at 100-200 nM Fis, C2 at >=360 nM; EMSA: 20 mM HEPES-KOH pH 7.6, 80 mM KCl, 1 mM EDTA, 4 mM DTT, 5 mM Mg acetate, 0.1 mg/ml BSA, 10% glycerol, 3 uM ATP or ADP, lambda-DNA competitor, 35 nM DNA, 30 C 5 min; pull-down in same buffer with 400 nM FBS1 competitor, preincubations on ice; details: protein: recombinant; chain copies: 2; blunt
Chain of Fis (P0A6R3 whole entry): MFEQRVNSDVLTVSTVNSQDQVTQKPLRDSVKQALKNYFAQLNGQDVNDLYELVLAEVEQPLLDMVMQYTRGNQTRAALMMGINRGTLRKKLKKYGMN

DnaA [2] = molecular target: T1, DnaA (Escherichia coli, UniProt P03004 1-467); assay: EMSA; ATP; oligomers, trimer C3 a major form at >=480 nM DnaA; EMSA: 20 mM HEPES-KOH pH 7.6, 80 mM KCl, 1 mM EDTA, 4 mM DTT, 5 mM Mg acetate, 0.1 mg/ml BSA, 10% glycerol, 3 uM ATP or ADP, lambda-DNA competitor, 35 nM DNA, 30 C 5 min; pull-down in same buffer with 400 nM FBS1 competitor, preincubations on ice; details: protein: recombinant; blunt
T1 sequence: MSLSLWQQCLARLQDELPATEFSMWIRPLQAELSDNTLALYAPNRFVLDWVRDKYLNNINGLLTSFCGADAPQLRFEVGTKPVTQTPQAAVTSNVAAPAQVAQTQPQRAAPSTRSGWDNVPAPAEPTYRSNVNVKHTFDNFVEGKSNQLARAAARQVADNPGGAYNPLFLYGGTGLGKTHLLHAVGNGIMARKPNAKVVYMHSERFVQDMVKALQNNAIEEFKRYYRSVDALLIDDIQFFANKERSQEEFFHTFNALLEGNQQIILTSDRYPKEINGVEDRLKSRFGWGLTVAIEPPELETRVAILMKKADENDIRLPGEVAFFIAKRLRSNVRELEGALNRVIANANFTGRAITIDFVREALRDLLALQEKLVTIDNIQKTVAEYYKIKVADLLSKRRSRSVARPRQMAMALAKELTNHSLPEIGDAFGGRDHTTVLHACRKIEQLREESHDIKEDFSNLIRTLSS

DnaA;Fis = DnaA;Fis (Escherichia coli;Escherichia coli, UniProt P03004;P0A6R3 1-467;1-98, |); assay: EMSA; ADP; DnaA and Fis bind independently; EMSA: 20 mM HEPES-KOH pH 7.6, 80 mM KCl, 1 mM EDTA, 4 mM DTT, 5 mM Mg acetate, 0.1 mg/ml BSA, 10% glycerol, 3 uM ATP or ADP, lambda-DNA competitor, 35 nM DNA, 30 C 5 min; pull-down in same buffer with 400 nM FBS1 competitor, preincubations on ice; details: protein: recombinant;recombinant; tags: ;; copies: 1;2; blunt
Chain of DnaA;Fis (P0A6R3 whole entry, one chain of several): as the sequence (P0A6R3 whole entry) above

DnaA [3] = molecular target: T1, DnaA; assay: EMSA; ATP; binding inhibited completely; EMSA: 20 mM HEPES-KOH pH 7.6, 80 mM KCl, 1 mM EDTA, 4 mM DTT, 5 mM Mg acetate, 0.1 mg/ml BSA, 10% glycerol, 3 uM ATP or ADP, lambda-DNA competitor, 35 nM DNA, 30 C 5 min; pull-down in same buffer with 400 nM FBS1 competitor, preincubations on ice; details: protein: recombinant; blunt
DnaA [4] = molecular target: T1, DnaA; assay: EMSA; ATP; trimer formation not considerably inhibited; EMSA: 20 mM HEPES-KOH pH 7.6, 80 mM KCl, 1 mM EDTA, 4 mM DTT, 5 mM Mg acetate, 0.1 mg/ml BSA, 10% glycerol, 3 uM ATP or ADP, lambda-DNA competitor, 35 nM DNA, 30 C 5 min; pull-down in same buffer with 400 nM FBS1 competitor, preincubations on ice; details: protein: recombinant; blunt
DnaA [5] = molecular target: T1, DnaA; assay: EMSA; ADP; monomer to trimer complexes at suboptimal DnaA; EMSA: 20 mM HEPES-KOH pH 7.6, 80 mM KCl, 1 mM EDTA, 4 mM DTT, 5 mM Mg acetate, 0.1 mg/ml BSA, 10% glycerol, 3 uM ATP or ADP, lambda-DNA competitor, 35 nM DNA, 30 C 5 min; pull-down in same buffer with 400 nM FBS1 competitor, preincubations on ice; details: protein: recombinant; blunt

B1: DnaA (replication initiator protein of Escherichia coli) (natural protein, UniProt P03004 1-467, looked up)
chain: T1 sequence
notes: DnaA, chromosomal replication initiator protein, Escherichia coli; four domains, Arg finger Arg285 in domain III; Preincubated with 3 uM ATP (ATP–DnaA) or ADP (ADP–DnaA) before the EMSA; The nucleotide state is told by the assay, not by a separate molecule; also called ATP–DnaA; ADP–DnaA; source: purified protein
- stoichiometry N [1]: 3 and 4

B2: FBS2-5 WT (dsDNA)
DNA 1: GGGTTGGCGAAAGATCAACCAATGCCGTATTTATCCACAGAATGTGCCACTA
DNA 2: TAGTGGCACATTCTGTGGATAAATACGGCATTGGTTGATCTTTCGCCAACCC
- binding result (Fis): binds
- binding result (DnaA [2]): binds
- binding result (DnaA;Fis): binds

B3: FBS2-5 subDnaA box V (dsDNA)
DNA 1: B2 DNA 1 with T31A, T32C, T34G, C35G, A39T
DNA 2: B2 DNA 2 with T14A, G18C, A19C, A21G, A22T
- binding result (DnaA [3]): no binding

B4: FBS2-5 subDnaA box V-c (dsDNA)
DNA 1: B2 DNA 1 with A10G, A11G, A12G, A14G, T15C, A17G
DNA 2: B2 DNA 2 with T36C, A38G, T39C, T41C, T42C, T43C
- binding result (DnaA [4]): binds

B5: oriC R5MI2 R14 (dsDNA)
DNA 1: TCATTACCTGTGGATAACCTGTGGATAACCTGTGGATAACCTGTGGATAAAATGA
DNA 2: TCATTTTATCCACAGGTTATCCACAGGTTATCCACAGGTTATCCACAGGTAATGA
- binding result (DnaA [5]): binds
